Test results taken from article PMC4976285.

Biological target: HLA-A*0201 molecules on the surface of T2 cells (human (endogenous in T2) | human)
Experiment: flow cytometry on cells

HTNV nucleoprotein peptide FA9 (aa129–aa137, …)
fluorescent index (FI): 2.77
